According to IntAct's records for PubMed 22262837:

B1: Kin of IRRE-like protein 1 (Homo sapiens), Q96J84 (parent)
chain: MLSLLVWILTLSDTFSQGTQTRFSQEPADQTVVAGQRAVLPCVLLNYSGIVQWTKDGLALGMGQGLKAWPRYRVVGSADAGQYNLEITDAELSDDASYECQATEAALRSRRAKLTVLIPPEDTRIDGGPVILLQAGTPHNLTCRAFNAKPAATIIWFRDGTQQEGAVASTELLKDGKRETTVSQLLINPTDLDIGRVFTCRSMNEAIPSGKETSIELDVHHPPTVTLSIEPQTVQEGERVVFTCQATANPEILGYRWAKGGFLIEDAHESRYETNVDYSFFTEPVSCEVHNKVGSTNVSTLVNVHFAPRIVVDPKPTTTDIGSDVTLTCVWVGNPPLTLTWTKKDSNMVLSNSNQLLLKSVTQADAGTYTCRAIVPRIGVAEREVPLYVNGPPIISSEAVQYAVRGDGGKVECFIGSTPPPDRIAWAWKENFLEVGTLERYTVERTNSGSGVLSTLTINNVMEADFQTHYNCTAWNSFGPGTAIIQLEEREVLPVGIIAGATIGASILLIFFFIALVFFLYRRRKGSRKDVTLRKLDIKVETVNREPLTMHSDREDDTASVSTATRVMKAIYSSFKDDVDLKQDLRCDTIDTREEYEMKDPTNGYYNVRAHEDRPSSRAVLYADYRAPGPARFDGRPSSRLSHSSGYAQLNTYSRGPASDYGPEPTPPGPAAPAGTDTTSQLSYENYEKFNSHPFPGAAGYPTYRLGYPQAPPSGLERTPYEAYDPIGKYATATRFSYTSQHSDYGQRFQQRMQTHV

Variants of: B1
Details: with zo1_human TJP1, Q07157
Sequence of zo1_human TJP1, Q07157 (Q07157 whole entry): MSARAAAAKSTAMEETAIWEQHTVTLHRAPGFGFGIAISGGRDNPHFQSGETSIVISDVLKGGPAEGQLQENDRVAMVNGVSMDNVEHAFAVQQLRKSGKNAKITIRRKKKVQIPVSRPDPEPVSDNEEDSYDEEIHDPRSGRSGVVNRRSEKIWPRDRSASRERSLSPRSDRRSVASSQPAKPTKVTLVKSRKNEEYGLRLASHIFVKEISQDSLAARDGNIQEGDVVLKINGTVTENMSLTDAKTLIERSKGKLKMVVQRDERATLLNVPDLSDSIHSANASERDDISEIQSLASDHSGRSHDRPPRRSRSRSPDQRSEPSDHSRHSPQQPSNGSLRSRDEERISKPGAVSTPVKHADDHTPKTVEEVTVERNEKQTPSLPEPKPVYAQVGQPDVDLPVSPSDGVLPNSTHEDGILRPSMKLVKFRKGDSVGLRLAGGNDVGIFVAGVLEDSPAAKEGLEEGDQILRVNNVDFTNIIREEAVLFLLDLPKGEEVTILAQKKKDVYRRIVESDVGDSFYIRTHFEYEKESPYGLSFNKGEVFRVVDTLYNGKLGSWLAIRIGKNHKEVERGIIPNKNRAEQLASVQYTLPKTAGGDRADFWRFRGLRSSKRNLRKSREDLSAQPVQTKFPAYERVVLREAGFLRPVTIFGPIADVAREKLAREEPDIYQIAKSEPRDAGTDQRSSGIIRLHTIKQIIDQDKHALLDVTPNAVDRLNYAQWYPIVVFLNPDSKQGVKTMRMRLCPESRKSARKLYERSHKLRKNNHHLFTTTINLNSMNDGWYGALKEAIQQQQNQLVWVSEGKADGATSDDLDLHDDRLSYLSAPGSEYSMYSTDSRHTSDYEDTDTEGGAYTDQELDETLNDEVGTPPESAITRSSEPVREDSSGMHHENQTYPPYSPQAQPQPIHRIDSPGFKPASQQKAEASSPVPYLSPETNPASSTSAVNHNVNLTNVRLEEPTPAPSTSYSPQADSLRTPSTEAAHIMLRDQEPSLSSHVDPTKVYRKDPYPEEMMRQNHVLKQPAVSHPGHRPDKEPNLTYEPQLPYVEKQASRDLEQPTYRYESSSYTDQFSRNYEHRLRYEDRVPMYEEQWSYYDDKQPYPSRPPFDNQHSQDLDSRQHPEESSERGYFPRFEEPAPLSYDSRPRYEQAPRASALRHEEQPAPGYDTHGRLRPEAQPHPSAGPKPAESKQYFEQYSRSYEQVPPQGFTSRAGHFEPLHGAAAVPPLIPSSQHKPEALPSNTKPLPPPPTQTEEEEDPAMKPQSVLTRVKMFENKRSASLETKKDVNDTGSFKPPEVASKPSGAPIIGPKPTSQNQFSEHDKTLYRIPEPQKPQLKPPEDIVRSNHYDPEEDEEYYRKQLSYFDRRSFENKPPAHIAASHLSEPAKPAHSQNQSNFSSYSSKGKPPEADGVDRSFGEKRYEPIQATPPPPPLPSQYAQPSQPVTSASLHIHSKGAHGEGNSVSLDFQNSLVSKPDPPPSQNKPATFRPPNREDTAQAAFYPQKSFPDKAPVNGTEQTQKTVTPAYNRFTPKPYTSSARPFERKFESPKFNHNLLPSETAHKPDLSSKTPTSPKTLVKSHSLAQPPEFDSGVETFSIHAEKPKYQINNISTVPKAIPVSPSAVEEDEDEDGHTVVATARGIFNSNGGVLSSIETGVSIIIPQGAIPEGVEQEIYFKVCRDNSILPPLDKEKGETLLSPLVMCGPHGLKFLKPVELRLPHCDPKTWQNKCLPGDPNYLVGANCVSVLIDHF

Row | effect of a mutation on the interaction | Variant
1 | decreasing interaction strength | K729A
2 | decreasing interaction strength | Y730A
